Measured values published in publication PMC11950179 (Nature Communications, 2025).

T1: human muscle phosphorylase kinase α subunit (PHKA1), dephosphorylated (human, UniProt P46020 1-1223)
T1 sequence (looked up): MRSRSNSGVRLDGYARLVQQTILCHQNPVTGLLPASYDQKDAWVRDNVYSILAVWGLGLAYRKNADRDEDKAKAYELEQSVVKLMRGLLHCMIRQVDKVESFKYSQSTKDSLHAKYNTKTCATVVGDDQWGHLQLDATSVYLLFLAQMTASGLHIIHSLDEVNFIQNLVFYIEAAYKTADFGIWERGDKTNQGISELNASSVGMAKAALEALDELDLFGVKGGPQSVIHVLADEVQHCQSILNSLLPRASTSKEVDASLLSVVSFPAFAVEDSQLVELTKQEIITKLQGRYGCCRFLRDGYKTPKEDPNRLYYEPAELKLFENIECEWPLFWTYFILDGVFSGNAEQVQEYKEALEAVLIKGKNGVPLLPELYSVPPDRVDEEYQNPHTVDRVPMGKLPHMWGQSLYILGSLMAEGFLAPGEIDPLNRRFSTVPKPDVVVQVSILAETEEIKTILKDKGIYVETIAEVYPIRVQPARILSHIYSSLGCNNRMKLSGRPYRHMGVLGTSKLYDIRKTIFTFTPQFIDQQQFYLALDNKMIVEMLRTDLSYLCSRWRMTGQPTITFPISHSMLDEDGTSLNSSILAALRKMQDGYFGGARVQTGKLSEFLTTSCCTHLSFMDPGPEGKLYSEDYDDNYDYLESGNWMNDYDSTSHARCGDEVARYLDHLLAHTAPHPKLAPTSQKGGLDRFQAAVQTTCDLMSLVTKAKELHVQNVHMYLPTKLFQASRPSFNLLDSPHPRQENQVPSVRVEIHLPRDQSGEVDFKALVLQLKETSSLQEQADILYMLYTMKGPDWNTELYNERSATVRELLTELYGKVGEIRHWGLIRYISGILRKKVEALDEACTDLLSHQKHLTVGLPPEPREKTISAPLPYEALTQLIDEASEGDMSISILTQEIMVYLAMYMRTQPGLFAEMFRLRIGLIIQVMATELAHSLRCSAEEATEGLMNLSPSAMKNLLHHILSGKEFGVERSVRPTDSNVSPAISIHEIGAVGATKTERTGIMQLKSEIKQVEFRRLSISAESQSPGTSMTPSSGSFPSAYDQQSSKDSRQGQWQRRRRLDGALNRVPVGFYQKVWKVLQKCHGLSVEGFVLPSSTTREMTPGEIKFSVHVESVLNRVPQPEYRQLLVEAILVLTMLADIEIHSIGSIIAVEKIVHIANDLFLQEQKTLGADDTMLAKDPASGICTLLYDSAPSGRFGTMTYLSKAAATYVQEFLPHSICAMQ

B1: human muscle phosphorylase kinase γ subunit (PHKG1) (enzyme)
chain: not shown
B2: human muscle glycogen phosphorylase (PYGM) (enzyme, UniProt P11217 1-842, looked up)
chain: MSRPLSDQEKRKQISVRGLAGVENVTELKKNFNRHLHFTLVKDRNVATPRDYYFALAHTVRDHLVGRWIRTQQHYYEKDPKRIYYLSLEFYMGRTLQNTMVNLALENACDEATYQLGLDMEELEEIEEDAGLGNGGLGRLAACFLDSMATLGLAAYGYGIRYEFGIFNQKISGGWQMEEADDWLRYGNPWEKARPEFTLPVHFYGHVEHTSQGAKWVDTQVVLAMPYDTPVPGYRNNVVNTMRLWSAKAPNDFNLKDFNVGGYIQAVLDRNLAENISRVLYPNDNFFEGKELRLKQEYFVVAATLQDIIRRFKSSKFGCRDPVRTNFDAFPDKVAIQLNDTHPSLAIPELMRILVDLERMDWDKAWDVTVRTCAYTNHTVLPEALERWPVHLLETLLPRHLQIIYEINQRFLNRVAAAFPGDVDRLRRMSLVEEGAVKRINMAHLCIAGSHAVNGVARIHSEILKKTIFKDFYELEPHKFQNKTNGITPRRWLVLCNPGLAEVIAERIGEDFISDLDQLRKLLSFVDDEAFIRDVAKVKQENKLKFAAYLEREYKVHINPNSLFDIQVKRIHEYKRQLLNCLHVITLYNRIKREPNKFFVPRTVMIGGKAAPGYHMAKMIIRLVTAIGDVVNHDPAVGDRLRVIFLENYRVSLAEKVIPAADLSEQISTAGTEASGTGNMKFMLNGALTIGTMDGANVEMAEEAGEENFFIFGMRVEDVDKLDQRGYNAQEYYDRIPELRQVIEQLSSGFFSPKQPDLFKDIVNMLMHHDRFKVFADYEDYIKCQEKVSALYKNPREWTRMVIRNIATSGKFSSDRTIAQYAREIWGVEPSRQRLPAPDEAI
B3: human phosphorylase kinase β subunit (PHKB), dephosphorylated (natural protein, UniProt Q93100 1-1093, looked up)
chain: MAGAAGLTAEVSWKVLERRARTKRSGSVYEPLKSINLPRPDNETLWDKLDHYYRIVKSTLLLYQSPTTGLFPTKTCGGDQKAKIQDSLYCAAGAWALALAYRRIDDDKGRTHELEHSAIKCMRGILYCYMRQADKVQQFKQDPRPTTCLHSVFNVHTGDELLSYEEYGHLQINAVSLYLLYLVEMISSGLQIIYNTDEVSFIQNLVFCVERVYRVPDFGVWERGSKYNNGSTELHSSSVGLAKAALEAINGFNLFGNQGCSWSVIFVDLDAHNRNRQTLCSLLPRESRSHNTDAALLPCISYPAFALDDEVLFSQTLDKVVRKLKGKYGFKRFLRDGYRTSLEDPNRCYYKPAEIKLFDGIECEFPIFFLYMMIDGVFRGNPKQVQEYQDLLTPVLHHTTEGYPVVPKYYYVPADFVEYEKNNPGSQKRFPSNCGRDGKLFLWGQALYIIAKLLADELISPKDIDPVQRYVPLKDQRNVSMRFSNQGPLENDLVVHVALIAESQRLQVFLNTYGIQTQTPQQVEPIQIWPQQELVKAYLQLGINEKLGLSGRPDRPIGCLGTSKIYRILGKTVVCYPIIFDLSDFYMSQDVFLLIDDIKNALQFIKQYWKMHGRPLFLVLIREDNIRGSRFNPILDMLAALKKGIIGGVKVHVDRLQTLISGAVVEQLDFLRISDTEELPEFKSFEELEPPKHSKVKRQSSTPSAPELGQQPDVNISEWKDKPTHEILQKLNDCSCLASQAILLGILLKREGPNFITKEGTVSDHIERVYRRAGSQKLWLAVRYGAAFTQKFSSSIAPHITTFLVHGKQVTLGAFGHEEEVISNPLSPRVIQNIIYYKCNTHDEREAVIQQELVIHIGWIISNNPELFSGMLKIRIGWIIHAMEYELQIRGGDKPALDLYQLSPSEVKQLLLDILQPQQNGRCWLNRRQIDGSLNRTPTGFYDRVWQILERTPNGIIVAGKHLPQQPTLSDMTMYEMNFSLLVEDTLGNIDQPQYRQIVVELLMVVSIVLERNPELEFQDKVDLDRLVKEAFNEFQKDQSRLKEIEKQDDMTSFYNTPPLGKRGTCSYLTKAVMNLLLEGEVKPNNDDPCLIS

Tests used:
[1] = biological target: human calmodulin, δ subunit of phosphorylase kinase (human, UniProt P0DP25 1-149); assay: cryo-EM structure
[2] = biological target: B2; assay: cross-linking
[3] = biological target: T1, human muscle phosphorylase kinase α …; assay: cross-linking
[4] = biological target: B3; assay: cross-linking
[5] = biological target: the molecule itself; assay: cryo-EM structure

## B1
[1]
  binding result: binds
[2]
  binding result: binds

## B2
[3]
  binding result: binds
[4]
  binding result: binds

## B3
[5]
  stoichiometry N: 4
